{"source": "patent US8273357B2", "about": "“Antigen-carbohydrate conjugates” (Massachusetts Institute of Technology, priority 2004, dated 2012)", "molecules": {"B1": {"name": "(OVA)-3-1: ovalbumin modified via SMCC with nonasaccharide 3-1, average of three saccharides per OVA (conjugate)", "chain": "GSIGAASMEFCFDVFKELKVHHANENIFYCPIAIMSALAMVYLGAKDSTRTQINKVVRFDKLPGFGDSIEAQCGTSVNVHSSLRDILNQITKPNDVYSFSLASRLYAEERYPILPEYLQCVKELYRGGLEPINFQTAADQARELINSWVESQTNGIIRNVLQPSSVDSQTAMVLVNAIVFKGLWEKAFKDEDTQAMPFRVTEQESKPVQMMYQIGLFRVASMASEKMKILELPFASGTMSMLVLLPDEVSGLEQLESIINFEKLTEWTSSNVMEERKIKVYLPRMKMEEKYNLTSVLMAMGITDVFSSSANLSGISSAESLKISQAVHAAHAEINEAGREVVGSAEAGVDAASVSEEFRADHPFLFCIKHIATNAVLFFGRCVSP"}, "B2": {"name": "ovalbumin (protein, UniProt P01012 2-386, looked up)", "Ovalbumin": "B1 chain", "notes": "model antigen, unmodified"}}, "key": {"[1]": {"tested_on": "CD8α+ and CD8α− dendritic cells", "test": "Antigen presentation by sorted CD8α+ and CD8α− dendritic cell subsets to OTII T cells", "assay_type": "cell-based, mouse", "settings": "for presentation to OTII T cells by individual dendritic cell subsets: CD8α+ and CD8α− subsets", "experimental": "FIG. 5 is a graph showing that both dendritic cell subsets, i.e., cells that are CD8α+ and CD8α^−, can present (OVA)-301. CD11c+ dendritic cells were stained with antibody against CD8α and I-A^b MHC class H molecules and sorted into their respective CD8α+ and CD8α^− populations. 2×10^4 cells of each subtype were incubated with 1×10^5 purified OTII T cells with graded doses of OVA or (OVA)-3-1 for eighty-four hours with [^3H]thymidine (1 μCi) added for the last twelve hours. All data points were performed in triplicate.\nIn the mouse, there are three subsets of dendritic cells, which are defined by their expression of the cellular antigens CD8 and CD4, namely CD8 α^+CD4^−, CD8α^−CD4^+, and CD8αCD4^14,15. Many functional differences among these subsets have been described and it has been argued that the CD8α^+ subset may be solely responsible for maintaining peripheral tolerance while the CD8α^− subset induces immunity to captured antigen^14 To determine if the high-mannose receptor was restricted to a particular subset, a fluorescence cell sorter was used to separate dendritic cells into their respective CD8α^+ and CD8α^− subsets. Each subset was then tested for its ability to present OVA and (OVA)-3-1 to OTII T cells (FIG. 5). […] Thus, both dendritic cell subsets expressed a receptor capable of binding nonasaccharide 3-1 and mediating uptake of antigens modified with this oligosaccharide.\nTo obtain sufficient numbers of dendritic cells for antigen presentation and cytokine analysis, C57BL/6 mice were injected with a Flt3-ligand secreting tumor cell line to promote the expansion of dendritic cells. Fourteen days after this administration the mice were sacrificed and the spleens were isolated. Dendritic cells were purified from the spleens by positive selection with anti-CD11c microbeads as described above and stained with FITC-conjugated anti-1-A^b and cychrome-conjugated anti-CD8α. Cells were then sorted on a fluorescence-activated cell sorter, a MoFlo, (Dakocytomaton, Glostrup Denmark) into CD8α^+I-A^b+ and CD8α^−I-A^b+ populations. The purity of each subset was 80% with approximately 6% cross-contamination. Dendritic cells from each subset were used in antigen proliferation assays as described above (section 3.5.5)."}, "OTII T cells": {"tested_on": "OTII T cells", "test": "In vitro restimulation with OVA peptide of T cells from immunized, rechallenged mice", "assay_type": "in vivo, mouse", "settings": "OVA peptide 100 μg mL^−1, 24 h", "experimental": "FIGS. 8A and 8B are a series of dot plots (FIG. 8A) and a graph (FIG. 8B) showing that the oligosaccharide-mediated targeting of steady state dendritic cells leads to T cell tolerance. […] 2×10^7 OTII splenocytes were adoptively transferred into B6.Ly5.2/Cr recipients and then immunized by subcutaneous injection with PBS, OVA (200 ng), (OVA)-3-1 (200 ng), (OVA)-3-1 (200 ng)+mBSA (50 μg) or OVA peptide (100 μg) in Incomplete Freund's Adjuvant. At 8 days after these initial immunizations, mice received an antigenic rechallenge of OVA peptide (100 μg) in Complete Freund's Adjuvant. On day ten mice were sacrificed and cells were isolated from the draining lymph node, total T cells were purified by negative selection and the number of OTII T cells were counted by FACS as described for FIG. 6. […]\nFor T cell proliferation assays in adoptive transfer experiments, inguinal lymph nodes from each experimental group (3 mice/group) were pooled and dissociated with collagenase/EDTA as described above. […] Response to OVA peptide was determined by subtracting background proliferation (no peptide) from specific, peptide-induced proliferation. […] The proliferation index was calculated as the ratio of the response to OVA peptide in an experimental group to the response to OVA peptide in the PBS group."}, "IFN-γ": {"tested_on": "IFN-γ", "test": "IFN-γ ELISA during in vitro peptide restimulation of T cells from immunized mice", "assay_type": "in vivo, mouse", "settings": "24 h; lower limit of detection approximately 0.3 ng mL^−1", "experimental": "(§1) FIGS. 8A and 8B are a series of dot plots (FIG. 8A) and a graph (FIG. 8B) showing that the oligosaccharide-mediated targeting of steady state dendritic cells leads to T cell tolerance. […] 2×10^7 OTII splenocytes were adoptively transferred into B6.Ly5.2/Cr recipients and then immunized by subcutaneous injection with PBS, OVA (200 ng), (OVA)-3-1 (200 ng), (OVA)-3-1 (200 ng)+mBSA (50 μg) or OVA peptide (100 μg) in Incomplete Freund's Adjuvant. At 8 days after these initial immunizations, mice received an antigenic rechallenge of OVA peptide (100 μg) in Complete Freund's Adjuvant. On day ten mice were sacrificed and cells were isolated from the draining lymph node, total T cells were purified by negative selection and the number of OTII T cells were counted by FACS as described for FIG. 6. […] Purified T cells from each experimental group were seeded at 3×10^5 cells/well with purified […] dendritic cells (9×10^4/well) and were incubated for twenty-four hours±OVA peptide (100 μg mL^−1) with [^3H]thymidine (1 μCi) added for the last ten hours. […]\n(§2) 75-150 μL aliquots of supernatant were sampled from antigen presentation assays at 24, 48, and 72 hours. […] 25 μL of each supernatant were diluted 1:1 with PBS/1% BSA and analyzed in triplicate for IFN-γ, IL-10, and IL-4 using DuoSet ELISA reagents from R&D Systems. […]"}, "IL-4": {"tested_on": "IL-4", "test": "IL-4 ELISA during in vitro peptide restimulation of T cells from immunized mice", "assay_type": "in vivo, mouse", "settings": "24 h; lower limit of detection approximately 0.3 ng mL^−1", "experimental": "as §1, §2"}}, "note": "“Also recorded” adds a separate entry of the source."}
{"molecule": "B1", "values": [{"measurement": "presentation to OTII T cells by individual dendritic cell subsets", "setting": "[1]", "value": "presented by each subset"}, {"measurement": "presentation to OTII T cells by individual dendritic cell subsets", "setting": "[1]; listed as (OVA)-301", "value": "can present"}, {"measurement": "efficiency of presentation by CD8α+ subset relative to CD8α− subset", "setting": "[1]; sorted subsets, OTII T cells", "value": "approximately 2 fold"}, {"measurement": "ability of T cells from immunized mice to respond to dendritic cell-presented OVA peptide in vitro", "setting": "OTII T cells", "value": "significantly less responsive; also recorded: refractory to antigenic stimulation in vitro"}, {"measurement": "IFN-γ produced during peptide stimulation in vitro", "setting": "IFN-γ", "value": "no detectable IFN-γ"}, {"measurement": "IL-4 produced during peptide stimulation in vitro", "setting": "IL-4", "value": "not detected"}]}
{"molecule": "B2", "values": [{"measurement": "presentation to OTII T cells by individual dendritic cell subsets", "setting": "[1]", "value": "only weakly presented"}, {"measurement": "ability of T cells from immunized mice to respond to dendritic cell-presented OVA peptide in vitro", "setting": "OTII T cells", "value": "strongly activated"}, {"measurement": "IFN-γ produced during peptide stimulation in vitro", "setting": "IFN-γ", "value": "produced IFN-γ"}, {"measurement": "IL-4 produced during peptide stimulation in vitro", "setting": "IL-4", "value": "no IL-4"}]}
